# Assay results: patent publication US6458760B1, “Method for treating tissue damaged from ischemia” (Henry Ford Health System, priority 1998, dated 2002)
# System: rats with middle cerebral artery occlusion
# Assay: Stefin A in rat stroke model, infarcted brain tissue volume
# Assay type: in vivo
# Conditions: compared to animals without inhibitor
# Source text: The inventors have used a stroke model in rats, explained in more detail hereinbelow, to verify this. In this model, a nylon monofilament is advanced through the vasculature of anesthetized rats until it blocks the middle cerebral artery. The monofilament is left in place for two hours. Withdrawal of the monofilament initiates reperfusion of the ischemic tissue. The extent of damage is visualized seven days after the ischemic event by removing the brain of the animal and examining it in section.
# The initial cathepsin inhibitor used by the inventors was a large naturally occurring molecule, stefin A (MW 15,000). In the stroke model, this molecule was administered intraventricularly in some studies prior to the occlusion and intravenously upon reperfusion in others.
molecule,measurement,setting,value
"stefin A: large naturally occurring molecule (MW 15,000), cathepsin inhibitor, recombinant preparation, used as control (protein, UniProt P01040 1-98, looked up) Cystatin-A: MIPGGLSEAKPATPEIQEIVDKVKPQLEEKTNETYGKLEAVQYKTQVVAGTNYYIKVRAGDNKYMHLKVFKSLPGQNEDLVLTGYQVDKNKDDELTGF",reduction in the volume of the infarcted brain tissue,administered intravenously upon reperfusion,~40%
same,reduction in the volume of the infarcted brain tissue,administered intraventricularly prior to the occlusion,~40%
